One assay addresses HLA-B*40:01. The experiment in a line: IEDB peptide-MHC binding, purified MHC/direct/fluorescence; filed as Kd, often an IC50 or EC50 that approximates it; ≥ and ≤ were set here for values at or beyond the usual limits of such assays.
In another assay the target is HLA-C*05:01. The assay is described as above. The note with it: source organism: Orthomarburgvirus marburgense.
The next assay has as its target HLA-B*27:05. The description is as above.
The next assay addresses HLA-B*48:01. Described as above.
Assay [1] addresses HLA-B*15:01. The assay is described as above.
The target in another assay is HLA-B*15:17. The description is as above.
The target of the next assay is HLA-B*57:01. The assay is described as above.
Assay [2] has as its target HLA-B*39:01. Described as above. The note with it: source organism: Marburg virus - Musoke, Kenya, 1980.
A further assay has as its target HLA-B*46:01. The description is as above.
In the next assay the target is HLA-B*07:02. Described as above.
The next assay deals with HLA-B*18:01. Described as above.
A further assay has as its target HLA-A*69:01. The description is as above.
For assay [3], the target named is HLA-A*01:01. Described as above.
In the next assay the target is HLA-B*15:09. The description is as above.
For a further assay, the target named is HLA-A*68:02. Described as above. As to conditions: source organism: Marburg virus - Musoke, Kenya, 1980.
The target in another assay is HLA-B*08:02. The assay is described as above.
Another assay has as its target HLA-B*38:01. Described as above.
The target of a further assay is HLA-B*58:01. The description is as above.
A further assay concerns the target HLA-A*30:01. Nature of the assay: IEDB peptide-MHC binding, purified MHC/competitive/fluorescence; filed as Kd, often an IC50 or EC50 that approximates it; ≥ and ≤ were set here for values at or beyond the usual limits of such assays.
The target in assay [4] is HLA-A*02:01. The description is as above.
The target in assay [5] is HLA-A*26:02. Described as above. As to conditions: source organism: Orthomarburgvirus marburgense.
In a further assay the target is HLA-A*24:03. Nature of the assay: IEDB peptide-MHC binding, purified MHC/direct/fluorescence; filed as Kd, often an IC50 or EC50 that approximates it; ≥ and ≤ were set here for values at or beyond the usual limits of such assays. As to conditions: source organism: Salmonella enterica subsp. enterica serovar Typhimurium.
A further assay deals with HLA-A*11:01. The assay is described as above.
The target in another assay is HLA-A*03:01. The assay is described as above.
A further assay deals with HLA-A*26:01. The assay is described as above.
A further assay has as its target HLA-A*31:01. The description is as above.
The target in assay [6] is HLA-B*08:01. The assay is described as above.
For assay [7], the target named is HLA-A*02:01. The assay is described as above.
The target of the next assay is HLA-B*44:02. The description is as above. As to conditions: source organism: Salmonella enterica subsp. enterica serovar Typhimurium.
The target of a further assay is HLA-A*02:50. Nature of the assay: IEDB peptide-MHC binding, purified MHC/competitive/fluorescence; filed as Kd, often an IC50 or EC50 that approximates it; ≥ and ≤ were set here for values at or beyond the usual limits of such assays. As to conditions: source organism: Aeromonas salmonicida subsp. salmonicida.
The next assay has as its target HLA-B*51:01. The experiment in a line: IEDB peptide-MHC binding, purified MHC/direct/fluorescence; filed as Kd, often an IC50 or EC50 that approximates it; ≥ and ≤ were set here for values at or beyond the usual limits of such assays. As to conditions: source organism: Mycobacterium tuberculosis.
A further assay has as its target HLA-B*15:42. Nature of the assay: IEDB peptide-MHC binding, purified MHC/competitive/fluorescence; filed as Kd, often an IC50 or EC50 that approximates it; ≥ and ≤ were set here for values at or beyond the usual limits of such assays. As to conditions: source organism: Mycobacterium tuberculosis C.
Assay [8] addresses HLA-B*15:01. The assay is described as above.
The target in the next assay is HLA-B*45:06. Described as above. The note with it: source organism: Mycobacterium tuberculosis C.
Another assay addresses HLA-B*83:01. Described as above. The note with it: source organism: Mycobacterium tuberculosis C.
Assay [9] concerns the target HLA-A*26:02. Nature of the assay: IEDB peptide-MHC binding, purified MHC/direct/fluorescence; filed as Kd, often an IC50 or EC50 that approximates it; ≥ and ≤ were set here for values at or beyond the usual limits of such assays. As to conditions: source organism: Coxiella burnetii Q321.
For another assay, the target named is HLA-A*26:03. Described as above. The note with it: source organism: Coxiella burnetii Q321.
The target in assay [10] is HLA-B*39:01. Nature of the assay: IEDB peptide-MHC binding, purified MHC/competitive/fluorescence; filed as Kd, often an IC50 or EC50 that approximates it; ≥ and ≤ were set here for values at or beyond the usual limits of such assays. As to conditions: source organism: Coxiella burnetii RSA 493.
For assay [11], the target named is HLA-B*08:01. The description is as above. The note with it: source organism: Coxiella burnetii RSA 493.
The target in assay [12] is HLA-A*01:01. Described as above. As to conditions: source organism: Coxiella burnetii RSA 493.
[13] abbreviates: source organism: Marburg virus - Musoke, Kenya, 1980.
Setting [14] is: source organism: Ravn virus - Ravn, Kenya, 1987.
[15] abbreviates: source organism: Orthomarburgvirus marburgense.
[16] abbreviates: source organism: Salmonella enterica subsp. enterica serovar Typhimurium.
The mark [17] stands for this setting: source organism: Mycobacterium tuberculosis.
The mark [18] stands for this setting: source organism: Mycobacterium tuberculosis str. Haarlem.
Where [19] appears, read: source organism: Coxiella burnetii.
Setting [20] is: source organism: Coxiella burnetii RSA 493.

For orientation: Kd means the equilibrium constant for the complex coming apart. A low value points to higher affinity.

On to IFDDLQGSL, for which the equilibrium dissociation constant (Kd) in the assay with HLA-B*40:01 (setting [13]) is at least 20 µM; with HLA-C*05:01, 3.84 µM; with HLA-B*27:05 (setting [13]) it was at least 20 µM; in the assay with HLA-B*48:01 (setting [13]), at least 20 µM; with HLA-B*15:01 [1] (setting [13]) it was at least 20000 nM; with HLA-B*15:17 (setting [13]), at least 20 µM. The Kd with HLA-B*57:01 (setting [13]) is at least 20 µM; with HLA-B*39:01 [2], at least 20 µM; with HLA-B*46:01 (setting [13]) it was at least 20 µM; with HLA-B*07:02 (setting [13]), at least 20 µM; with HLA-B*18:01 (setting [13]), at least 20 µM; with HLA-A*69:01 (setting [13]), at least 20000 nM. Moreover, the Kd with HLA-A*01:01 [3] (setting [13]), with HLA-B*15:09 (setting [14]), with HLA-A*68:02, in the assay with HLA-B*08:02 (setting [14]), with HLA-B*38:01 (setting [14]) and in the assay with HLA-B*58:01 (setting [13]) was at least 20 µM in each case. Besides, the values for the dissociation constant (Kd) with HLA-A*30:01 (setting [15]), with HLA-A*02:01 [4] (setting [15]) and with HLA-A*26:02 [5] were at least 20000 nM, at least 20 µM and at least 20 µM, respectively.

With FMIDWILDA, the dissociation constant (Kd) was at least 20 µM in the assay with HLA-B*40:01 (setting [16]); at least 20 µM with HLA-A*24:03; at least 20 µM in the assay with HLA-A*11:01 (setting [16]); at least 20 µM with HLA-B*27:05 (setting [16]); 264 nM with HLA-B*15:01 [1] (setting [16]); at least 20 µM with HLA-A*03:01 (setting [16]). In addition, the Kd in the assay with HLA-A*26:01 (setting [16]) is at least 20 µM; in the assay with HLA-A*31:01 (setting [16]) it was at least 20 µM; in the assay with HLA-B*07:02 (setting [16]), at least 20 µM; with HLA-B*08:01 [6] (setting [16]) it was at least 20 µM; with HLA-A*69:01 (setting [16]), 56 nM; with HLA-A*01:01 [3] (setting [16]) it was at least 20 µM. Further, the dissociation constant Kd was 3 nM with HLA-A*02:01 [7] (setting [16]), at least 20 µM with HLA-B*58:01 (setting [16]), at least 20 µM with HLA-B*44:02 and at most 0.1 nM with HLA-A*02:50.

For the sequence RPAGARAAF, the dissociation constant Kd in the assay with HLA-B*40:01 (setting [17]), with HLA-A*11:01 (setting [17]), with HLA-B*27:05 (setting [17]), with HLA-B*48:01 (setting [17]), with HLA-A*03:01 (setting [17]) and with HLA-A*26:01 (setting [18]) was at least 20 µM each time. For the same sequence, the Kd in the assay with HLA-B*15:17 (setting [17]) was at least 20 µM; with HLA-B*57:01 (setting [17]) it was at least 20 µM; with HLA-A*31:01 (setting [17]), at least 20 µM; with HLA-B*46:01 (setting [17]), at least 20 µM; with HLA-B*08:01 [6] (setting [18]) it was 6.85 µM; with HLA-B*51:01, at least 20 µM. In addition, the Kd with HLA-B*18:01 (setting [17]) was 11.8 µM; with HLA-A*69:01 (setting [17]), at least 20000 nM; with HLA-A*01:01 [3] (setting [17]), at least 20 µM; with HLA-A*02:01 [7] (setting [17]), at least 20000 nM; with HLA-B*15:09 (setting [18]) it was at least 20 µM; in the assay with HLA-B*08:02 (setting [18]), at least 20 µM. The dissociation constant (Kd) with HLA-B*38:01 (setting [18]) was at least 20 µM; with HLA-B*58:01 (setting [17]) it was at least 20 µM; with HLA-B*15:42, at least 5 µM; with HLA-B*15:01 [8] (source organism: Mycobacterium tuberculosis C), at least 20 µM; with HLA-B*45:06 it was at least 5 µM; with HLA-B*83:01, 245 nM.

For the sequence EIYRTLYGL, the Kd with HLA-B*40:01 (setting [19]) is at least 20 µM; with HLA-A*11:01 (setting [19]), at least 20 µM; in the assay with HLA-B*27:05 (setting [19]), at least 20 µM; in the assay with HLA-B*48:01 (setting [19]), at least 20 µM; in the assay with HLA-A*03:01 (setting [19]) it was at least 20 µM; in the assay with HLA-A*26:01 (source organism: Coxiella burnetii Q321) it was 0.067 µM. Also, the Kd with HLA-B*15:17 (setting [19]) was 0.384 µM; with HLA-B*57:01 (setting [19]), at least 20 µM; with HLA-A*31:01 (setting [19]), at least 20 µM; in the assay with HLA-B*46:01 (setting [19]), at least 20 µM; in the assay with HLA-A*69:01 (setting [19]), 1.4 nM; with HLA-A*26:02 [9] it was 6 nM. For the same sequence, the dissociation constant Kd in the assay with HLA-B*58:01 (setting [19]) was at least 20 µM; with HLA-A*26:03, 182 nM; with HLA-A*30:01 (setting [20]), 2470 nM; with HLA-B*15:01 [8] (setting [20]), at least 20 µM; with HLA-B*39:01 [10], 2740 nM; with HLA-B*08:01 [11], 7 µM. The results for the Kd in the assay with HLA-A*01:01 [12] and with HLA-A*02:01 [4] (setting [20]) were 4.29 µM and at least 20 µM, respectively.

These data come from the Immune Epitope Database (IEDB).
